Measured values as given in patent publication US20240317847A1 (Bayer, published 2024).

T1: human IL-11 (human, UniProt P20809 22-199)
T1 construct: Invigate recombinant protein; biotinylated when immobilized in the Di-complex ELISA; also called hIL11; hIL-11
T1 sequence: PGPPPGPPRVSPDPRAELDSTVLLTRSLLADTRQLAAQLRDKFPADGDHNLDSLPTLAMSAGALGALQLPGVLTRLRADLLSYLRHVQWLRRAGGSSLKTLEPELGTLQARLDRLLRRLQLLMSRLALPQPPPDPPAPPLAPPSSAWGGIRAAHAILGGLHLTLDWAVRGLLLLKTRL

T2: murine IL-11 (mouse, UniProt P47873 22-199)
T2 sequence: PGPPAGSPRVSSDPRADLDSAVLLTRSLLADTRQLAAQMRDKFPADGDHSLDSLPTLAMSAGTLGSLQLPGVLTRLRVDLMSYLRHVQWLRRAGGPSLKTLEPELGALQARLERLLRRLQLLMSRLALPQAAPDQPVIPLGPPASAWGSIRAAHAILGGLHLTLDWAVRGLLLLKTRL

T3: murine IL-11 (Invigate, e.g., lot #C210819-09) (mouse, UniProt P47873 22-199)
T3 construct: Bought protein; biotinylated where captured on streptavidin plates; also called mIL-11; mIL11
T3 sequence: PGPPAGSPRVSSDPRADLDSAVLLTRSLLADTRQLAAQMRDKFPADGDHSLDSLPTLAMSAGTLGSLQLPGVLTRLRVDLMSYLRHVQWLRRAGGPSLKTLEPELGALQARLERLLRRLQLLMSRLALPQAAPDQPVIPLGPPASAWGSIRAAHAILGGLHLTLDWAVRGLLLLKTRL

T4: human IL-11 (Invigate, e.g., lot #C121021-19) (human, UniProt P20809 22-199)
T4 construct: Bought protein; also called hIL-11; hIL11
T4 sequence: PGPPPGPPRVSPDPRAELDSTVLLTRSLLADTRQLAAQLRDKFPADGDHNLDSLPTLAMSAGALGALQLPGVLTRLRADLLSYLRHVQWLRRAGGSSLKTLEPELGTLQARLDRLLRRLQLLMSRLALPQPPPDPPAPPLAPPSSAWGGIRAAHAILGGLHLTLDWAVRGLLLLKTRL


Key:
human IL-11 [1] = biological target: T1, human IL-11; experiment: Tri-complex ELISA, hIL-11 + mIL-11Ra-Fc + hgp130-Fc, inhibition of complex formation
murine IL-11 = biological target: T2, murine IL-11; experiment: cell-based or functional assay
human IL-11 [2] = biological target: T1, human IL-11; experiment: cell-based or functional assay
[3] = biological target: T3, murine IL-11 (Invigate, e.g., lot …); experiment: Tri-complex ELISA: antibody titrated against 8 nM murine IL-11, 2 nM murine gp130-human-Fc and 2 nM murine IL11RA-murine-Fc
Procedure: (§1) In the Tri-complex ELISA format IL-11 antibodies are tested for their ability to inhibit the formation of a complex consisting of murine or human gp130-Fc fusion protein, with murine or human IL-11, and a murine IL11RA-Fc fusion protein. The assay format was adapted according to FIG. 18 (a, b), depending on whether murine or human IL-11 IgG antibodies were tested.
(§2) The assay was performed using High Binding microtiter plates (Greiner, #781077). In a first step, 25 μl of goat anti human IgG (Sigma, #12136), diluted 1:1000 in coating buffer (Candor, #121125) was coated on the plate at 4° C. overnight. Next day, the plate was washed one time with 50 μl PBST and then blocked with 50 μl SmartBlock (Candor, #113125) for one hour at room temperature (RT). […] After three additional washes of the coated and blocked microtiter plate with PBS-T, 25 μl of each mixture were added and the assay plate was incubated for one hour at room temperature. After three additional washes, anti-mouse-gp130 biotinylated antibody (R&D, #BAF468) or anti-human gp130 biotinylated antibody (R&D, #BAF228), both 1:1000 in 10% SmartBlock PBS-T, was added and incubated for 1 hour at RT. After three additional washes, a Streptavidin-Peroxidase conjugate (Sigma, #S5512) 1:1000 in SmartBlock PBS-T was added and incubated for one hour at room temperature. After a final three washes, AmplexRed (Fisher Scientific, A12222), 1/1000 in PBS, 0,003% H₂O₂, was added as substrate and incubated for 15 min at RT in the dark. Then, the fluorescence was measured with a plate reader at 535/595 nm. Signals from dose responses were used to calculate IC50 values using GraphPad Prism software.

[4] = biological target: T4, human IL-11 (Invigate, e.g., lot …); experiment: Tri-complex ELISA: antibody titrated against 8 nM human IL-11, 2 nM human gp130-human-Fc and 2 nM murine IL11RA-murine-Fc
Procedure: as §1, §2

[5] = biological target: T4, human IL-11 (Invigate, e.g., lot …); experiment: Di-complex ELISA: biotinylated human IL-11 on streptavidin plate, antibody titrated against 2 nM canine IL11RA-human-Fc (competitor)
Procedure: In the Di-complex ELISA format anti IL-11 antibodies are tested for the ability to interfere with the formation of complexes consisting of immobilized murine IL-11 (Invigate, e.g., lot #C210819-09) or human IL-11 (Invigate, e.g., lot #C121021-19), and murine IL11RA-Fc fusion proteins or canine IL11RA-human-Fc fusion protein (FIG. 17a, b).
The assay is performed using streptavidin coated microtiter plates (Greiner bio-one, #781997). In a first step, 10 nM biotinylated mouse IL-11 (Invigate, Germany, e.g., lot #C210819-09) or human IL-11 (Invigate, Germany, e.g., lot #C121021-19) is coated in 25 μl PBS on the plate at 4° C. overnight. Next day, the plate is washed three times with 50 μl PBST and then blocked with 50 μl SmartBlock (Candor, #113125) for one hour at room temperature (RT). After additional three washes with PBST, 25 μl of a mixture of the murine anti IL-11 antibody and recombinant canine IL11RA-Fc fusion protein (Sino Biological, #70078-D02H) in PBS-T, 10% Smartblock are added simultaneously to the plate and incubated for one hour at RT. […] After three additional washes with PBS-T, 25 μl anti-human-POD (Sigma, #A0170) in PBS-T, 10% Smartblock is added and incubated for 1 hour at RT. After a final three washes with PBS-T, 25 μl AmplexRed (Fisher Scientific, A12222), 1/1000 in PBS, 0,003% H₂O₂, is added as substrate and incubated for 15 min at RT in the dark. Then, the fluorescence is measured with a plate reader at 535/595 nm. Signals from dose responses were used to calculate IC50 values (GraphPad Prism). Efficacy was calculated as [(signal measured at lowest antibody concentration−signal measured at the highest antibody concentration)×100] divided by (signal measured at lowest antibody concentration−signal measured in the absence of IL11Ra).

[6] = biological target: T4, human IL-11 (Invigate, e.g., lot …); experiment: cell-based or functional assay
[7] = biological target: T3, murine IL-11 (Invigate, e.g., lot …); experiment: cell-based or functional assay

Efficacy (%) (human IL-11 [1])	IC50 (human IL-11 [1])	Efficacy (%), Stat3 reporter gene assay (murine IL-11)	IC50, Stat3 reporter gene assay (murine IL-11)	Efficacy (%), Stat3 reporter gene assay (human IL-11 [2])	IC50, Stat3 reporter gene assay (human IL-11 [2])	Efficacy (%) [3]	Efficacy (%) [4]	IC50 [4]	Efficacy (%) [5]	Efficacy (%), Stat3 reporter gene assay, human IL11RA, 0.78 nM hIL-11 [6]	IC50 [M], Stat3 reporter gene assay, HEK 293F transfected with human IL11RA, 0.78 nM hIL-11 [6]	Efficacy (%), Stat3 reporter gene assay, mouse Il11ra, 3.13 nM mIL-11 [7]	IC50 [M], Stat3 reporter gene assay, HEK 293F transfected with mouse Il11ra, 3.13 nM mIL-11 [7]	Binder	also measured
81.3%	2.4 nM	–	–	–	–	–	–	–	–	–	–	–	–	TPP-29519 (antibody, mouse IgG1, mIgG1, Lambda) heavy: QVQLVESGGGVVQPGRSLRLSCAASGFTFSHYDMHWVRQAPGKGLEWVAVISYHGSVKFYADSVKGRFTISRDNSKNTLYLQMNSLRAEDTAVYYCARTPGFHFDYWGQGTLVTVSSAKTTPPSVYPLAPGSAAQTNSMVTLGCLVKGYFPEPVTVTWNSGSLSSGVHTFPAVLQSDLYTLSSSVTVPSSTWPSETVTCNVAHPASSTKVDKKIVPRDCGCKPCICTVPEVSSVFIFPPKPKDVLTITLTPKVTCVVVDISKDDPEVQFSWFVDDVEVHTAQTQPREEQFNSTFRSVSELPIMHQDWLNGKEFKCRVNSAAFPAPIEKTISKTKGRPKAPQVYTIPPPKEQMAKDKVSLTCMITDFFPEDITVEWQWNGQPAENYKNTQPIMDTDGSYFVYSKLNVQKSNWEAGNTFTCSVLHEGLHNHHTEKSLSHSPGK light: QSVLTQPPSASGTPGQRVTISCSGSSSNIGSNYVSWYQQLPGTAPKLLIYYDDLRPSGVPDRFSGSKSGTSASLAISGLRSEDEADYYCSAWDDSLSGVVFGGGTKLTVLGQPKSSPSVTLFPPSSEELETNKATLVCTITDFYPGVVTVDWKVDGTPVTQGMETTQPSKQSNNKYMASSYLTLTARAWERHSSYSCQVTHEGHTVEKSLSRADCS	–
–	–	84.1%	2.7 nM	20.7%	4.8 nM	–	–	–	–	–	–	–	–	TPP-18068 (antibody, mouse IgG1, mIgG1, Lambda) heavy: EVQLLESGGGLVQPGGSLRLSCAASGFTFSSYGMHWVRQAPGKGLEWVSVISYDGSYKYYADSVKGRFTISRDNSKNTLYLQMNSLRAEDTAVYYCAAGVPDYWGQGTLVTVSSAKTTPPSVYPLAPGSAAQTNSMVTLGCLVKGYFPEPVTVTWNSGSLSSGVHTFPAVLQSDLYTLSSSVTVPSSTWPSETVTCNVAHPASSTKVDKKIVPRDCGCKPCICTVPEVSSVFIFPPKPKDVLTITLTPKVTCVVVDISKDDPEVQFSWFVDDVEVHTAQTQPREEQFNSTFRSVSELPIMHQDWLNGKEFKCRVNSAAFPAPIEKTISKTKGRPKAPQVYTIPPPKEQMAKDKVSLTCMITDFFPEDITVEWQWNGQPAENYKNTQPIMDTDGSYFVYSKLNVQKSNWEAGNTFTCSVLHEGLHNHHTEKSLSHSPGK light: QSVLTQPPSASGTPGQRVTISCTGSSSNIGAGYDVHWYQQLPGTAPKLLIYSNNERPSGVPDRFSGSKSGTSASLAISGLRSEDEADYYCAAWDDSLNGPVFGGGTKLTVLGQPKSSPSVTLFPPSSEELETNKATLVCTITDFYPGVVTVDWKVDGTPVTQGMETTQPSKQSNNKYMASSYLTLTARAWERHSSYSCQVTHEGHTVEKSLSRADCS	–
94.7%	1 nM	–	–	–	–	–	–	–	–	–	–	–	–	TPP-29528 (antibody, mouse IgG1, mIgG1, Lambda) heavy: EVQLLESGGGLVQPGGSLRLSCAASGFTFSSYGMHWVRQAPGKGLEWVAVISYDGSYKYYADSVKGRFTISRDNSKNTLYLQMNSLRAEDTAVYYCAAGVPDYWGQGTLVTVSSAKTTPPSVYPLAPGSAAQTNSMVTLGCLVKGYFPEPVTVTWNSGSLSSGVHTFPAVLQSDLYTLSSSVTVPSSTWPSETVTCNVAHPASSTKVDKKIVPRDCGCKPCICTVPEVSSVFIFPPKPKDVLTITLTPKVTCVVVDISKDDPEVQFSWFVDDVEVHTAQTQPREEQFNSTFRSVSELPIMHQDWLNGKEFKCRVNSAAFPAPIEKTISKTKGRPKAPQVYTIPPPKEQMAKDKVSLTCMITDFFPEDITVEWQWNGQPAENYKNTQPIMDTDGSYFVYSKLNVQKSNWEAGNTFTCSVLHEGLHNHHTEKSLSHSPGK light: QSVLTQPPSASGTPGQRVTISCSGSSSNIGSDYDVHWYQQLPGTAPKLLIYSNEERPSGVPDRFSGSKSGTSASLAISGLRSEDEADYYCSAWDSSLSGPVFGGGTKLTVLGQPKSSPSVTLFPPSSEELETNKATLVCTITDFYPGVVTVDWKVDGTPVTQGMETTQPSKQSNNKYMASSYLTLTARAWERHSSYSCQVTHEGHTVEKSLSRADCS	–
–	–	–	–	–	–	5.5%	60.4%	55 nM	10.7%	51.5%	1.07e-07 M	49%	3.31e-07 M	TPP-18087 (antibody, mouse IgG1, V domains shown, mIgG1, Lambda) VH: EVQLLESGGGLVQPGGSLRLSCAASGFTFSHYDMNWLRQAPGKGLEWVGVISYDGSNKFYADFVKGRFTISRDNSKNTLYLQMNSLRAEDTAVYYCARTPGSHFDYWGQGTLVTVSS VL: QSVLTQPPSASGTPGQRVTISCSGSSSNIGNNAVNWYQQLPGTAPKLLIYYDDLLPSGVPDRFSGSKSGTSASLAISGLRSEDEADYYCSAWDDSLNGVVFGGGTKLTVLG [TPP-18087, listing 1 of 2 here]	–
–	–	–	–	–	–	76.6%	57%	20 nM	57%	65.6%	1.5e-08 M	80.7%	9.6e-09 M	TPP-19528 (antibody, mouse IgG1, V domains shown, mIgG1, Lambda) VH: EVQLLESGGGLVQPGGSLRLSCAASGFTFSIYAMSWVRQAPGKGLEWVSSISDTGDRTYYADSVKGRFTISRDNSKNTLYLQMNSLRAEDTAVYYCARSNWGSLDYWGQGTLVTVSS VL: QSVLTQPPSASGTPGQRVTISCSGSSSNIGSNYVYWYQQLPGTAPKLLIYYDDLLPSGVPDRFSGSKSGTSASLAISGLRSEDEADYYCAAWDDSLSGRVFGGGTKLTVLG	IC50 [3]: 14 nM; IC50 [5]: 3 nM
–	–	49%	330 nM	51.5%	110 nM	–	–	–	–	–	–	–	–	TPP-18087 (antibody, mouse IgG1, V domains shown, mIgG1, Lambda) VH: EVQLLESGGGLVQPGGSLRLSCAASGFTFSHYDMNWLRQAPGKGLEWVGVISYDGSNKFYADFVKGRFTISRDNSKNTLYLQMNSLRAEDTAVYYCARTPGSHFDYWGQGTLVTVSS VL: QSVLTQPPSASGTPGQRVTISCSGSSSNIGNNAVNWYQQLPGTAPKLLIYYDDLLPSGVPDRFSGSKSGTSASLAISGLRSEDEADYYCSAWDDSLNGVVFGGGTKLTVLG [TPP-18087, listing 2 of 2 here]	–
